Assay results published in paper PMC11335189, “Revealing molecular determinants governing mambalgin-3 pharmacology at acid-sensing ion channel 1 variants” (Cellular and Molecular Life Sciences: CMLS, 2024).

T1: human acid-sensing ion channel 1a (human) (UniProt P78348)
T1 sequence: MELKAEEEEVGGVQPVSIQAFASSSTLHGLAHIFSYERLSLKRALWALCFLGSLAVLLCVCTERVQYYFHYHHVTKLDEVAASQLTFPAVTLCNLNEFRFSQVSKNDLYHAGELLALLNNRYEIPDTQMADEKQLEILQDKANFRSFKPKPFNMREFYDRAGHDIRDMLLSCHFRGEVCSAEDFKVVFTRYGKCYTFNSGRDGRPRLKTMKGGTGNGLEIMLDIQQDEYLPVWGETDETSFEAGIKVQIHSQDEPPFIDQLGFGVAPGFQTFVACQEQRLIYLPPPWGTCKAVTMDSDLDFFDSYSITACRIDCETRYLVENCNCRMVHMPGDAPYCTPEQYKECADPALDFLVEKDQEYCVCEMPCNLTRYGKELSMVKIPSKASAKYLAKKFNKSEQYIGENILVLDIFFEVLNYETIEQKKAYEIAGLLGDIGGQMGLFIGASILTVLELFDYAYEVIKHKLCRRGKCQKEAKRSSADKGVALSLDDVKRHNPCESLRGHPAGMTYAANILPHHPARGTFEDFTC

T2: rat acid-sensing ion channel 1a (rat) (UniProt P55926)
T2 sequence: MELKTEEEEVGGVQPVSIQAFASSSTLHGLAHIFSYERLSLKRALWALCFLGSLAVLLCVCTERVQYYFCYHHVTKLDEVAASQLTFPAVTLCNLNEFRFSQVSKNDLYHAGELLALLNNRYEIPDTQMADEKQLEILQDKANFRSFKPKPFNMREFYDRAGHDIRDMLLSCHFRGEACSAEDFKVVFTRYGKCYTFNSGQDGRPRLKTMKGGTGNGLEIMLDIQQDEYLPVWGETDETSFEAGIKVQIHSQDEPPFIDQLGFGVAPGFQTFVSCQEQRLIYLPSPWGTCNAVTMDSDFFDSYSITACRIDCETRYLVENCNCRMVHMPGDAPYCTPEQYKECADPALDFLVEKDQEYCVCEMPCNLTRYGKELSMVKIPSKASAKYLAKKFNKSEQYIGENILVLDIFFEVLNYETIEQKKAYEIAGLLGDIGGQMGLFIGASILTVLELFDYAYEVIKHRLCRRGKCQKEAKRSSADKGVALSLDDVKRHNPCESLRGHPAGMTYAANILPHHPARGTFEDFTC

T3: rat acid-sensing ion channel 1b (rat)
T3 sequence (P55926 whole entry, looked up): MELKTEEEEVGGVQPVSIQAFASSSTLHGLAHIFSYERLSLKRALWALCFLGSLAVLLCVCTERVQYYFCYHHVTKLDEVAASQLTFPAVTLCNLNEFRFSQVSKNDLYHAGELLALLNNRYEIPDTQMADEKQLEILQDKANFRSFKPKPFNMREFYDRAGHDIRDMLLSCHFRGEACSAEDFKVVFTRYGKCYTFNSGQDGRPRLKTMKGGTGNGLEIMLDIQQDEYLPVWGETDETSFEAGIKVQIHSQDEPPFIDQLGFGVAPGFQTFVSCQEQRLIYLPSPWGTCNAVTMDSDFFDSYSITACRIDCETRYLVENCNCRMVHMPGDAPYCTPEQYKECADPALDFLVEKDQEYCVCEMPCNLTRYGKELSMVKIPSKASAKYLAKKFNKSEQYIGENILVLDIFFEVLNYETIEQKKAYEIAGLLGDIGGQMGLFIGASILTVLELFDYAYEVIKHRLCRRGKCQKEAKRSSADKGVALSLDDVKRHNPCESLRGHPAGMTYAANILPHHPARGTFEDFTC

T4: rASIC1a S83T/Q84E/R175C/E177G (rat) (UniProt P55926)
T4 sequence: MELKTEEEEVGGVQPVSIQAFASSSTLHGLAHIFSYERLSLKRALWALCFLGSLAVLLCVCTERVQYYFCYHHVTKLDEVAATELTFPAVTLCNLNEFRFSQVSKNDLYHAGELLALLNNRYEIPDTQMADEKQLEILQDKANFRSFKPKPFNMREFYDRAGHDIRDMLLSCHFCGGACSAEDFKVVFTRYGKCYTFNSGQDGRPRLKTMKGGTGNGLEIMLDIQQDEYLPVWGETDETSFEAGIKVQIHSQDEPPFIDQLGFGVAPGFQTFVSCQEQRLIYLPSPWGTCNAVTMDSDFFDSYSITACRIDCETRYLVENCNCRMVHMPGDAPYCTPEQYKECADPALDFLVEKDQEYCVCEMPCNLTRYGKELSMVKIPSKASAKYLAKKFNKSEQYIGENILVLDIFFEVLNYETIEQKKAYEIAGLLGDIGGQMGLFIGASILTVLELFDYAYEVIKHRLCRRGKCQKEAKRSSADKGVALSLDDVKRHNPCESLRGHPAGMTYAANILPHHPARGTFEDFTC

T5: rASIC1a E362R (rat) (UniProt P55926)
T5 sequence: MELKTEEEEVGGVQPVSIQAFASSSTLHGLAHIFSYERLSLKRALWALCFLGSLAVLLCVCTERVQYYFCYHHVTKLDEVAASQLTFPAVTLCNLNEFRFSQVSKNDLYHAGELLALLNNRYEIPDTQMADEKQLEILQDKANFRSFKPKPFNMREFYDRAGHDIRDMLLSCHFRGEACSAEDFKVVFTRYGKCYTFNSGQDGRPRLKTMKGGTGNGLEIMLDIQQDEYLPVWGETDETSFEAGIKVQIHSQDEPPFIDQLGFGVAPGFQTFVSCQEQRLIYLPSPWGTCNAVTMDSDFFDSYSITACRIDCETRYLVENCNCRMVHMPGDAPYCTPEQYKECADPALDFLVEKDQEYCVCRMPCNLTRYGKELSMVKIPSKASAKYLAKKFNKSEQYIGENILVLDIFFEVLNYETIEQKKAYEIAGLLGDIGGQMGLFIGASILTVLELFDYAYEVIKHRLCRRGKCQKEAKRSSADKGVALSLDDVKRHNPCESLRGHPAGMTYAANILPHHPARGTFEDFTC


What was measured:
[1] = molecular target: T1, human acid-sensing ion channel 1a (human)
[2] = molecular target: T2, rat acid-sensing ion channel 1a (rat)
[3] = molecular target: T3, rat acid-sensing ion channel 1b (rat)
[4] = molecular target: T4, rASIC1a S83T/Q84E/R175C/E177G (rat)
[5] = molecular target: T3, rat acid-sensing ion channel 1b (rat); remark: listed apart in the source
[6] = molecular target: T2, rat acid-sensing ion channel 1a (rat); remark: listed apart in the source
[7] = molecular target: T3, rat acid-sensing ion channel 1b (rat); remark: listed apart in the source
[8] = molecular target: rASIC1b T128S/E129Q/C208R/G210E (rat)
[9] = molecular target: T1, human acid-sensing ion channel 1a (human); remark: listed apart in the source
rASIC1a E362R (rat) = molecular target: T5, rASIC1a E362R (rat)

Molecule | fold loss of potency of current inhibition against wild-type Ma-3 (conditioning pH 7.45, stimulus pH 6) [1] | fold loss of potency of current inhibition against wild-type Ma-3 (conditioning pH 7.45, stimulus pH 6) [2] | fold loss of potency of current inhibition against wild-type Ma-3 (conditioning pH 7.45, stimulus pH 6) [3] | I/I (control) of pH 6-evoked currents with 300 nM peptide (I/I (control)) [4] | I/I (control) of pH 6-evoked currents with 300 nM peptide (I/I (control)) [5] | IC50 of inhibition of pH 6-evoked currents (two-electrode voltage clamp, Xenopus oocytes, conditioning pH 7.45) [6] | IC50 of inhibition of pH 6-evoked currents (two-electrode voltage clamp, Xenopus oocytes, conditioning pH 7.45) [7] | maximal inhibition of pH 6-evoked currents at saturating Ma-3 [7] | IC50 of inhibition of pH 6-evoked currents (conditioning pH 7.45) [8] | IC50 of inhibition of pH 6-evoked currents (two-electrode voltage clamp, Xenopus oocytes, conditioning pH 7.45) [9] | concentration-response of inhibition of pH 6-evoked currents (conditioning pH 7.45); fold change against wild-type rASIC1a (rASIC1a E362R (rat))
Ma-3 K8A (peptide) | 4 fold | 4 fold | > 30 fold | 0.65 | 0.91 | – | – | – | – | – | –
mambalgin-3 (peptide) SLKCYQHGKVVTCHRDMKFCYHNIGMPFRNLKLILQGCSSSCSETENNKCCSTDRCNK | – | – | – | 0.48 | 0.4 | 3.9 nM | 38.3 nM | 60% | 18.5 nM | 25 nM | 5 fold
